Laboratory results as given in patent US20240254204A1.

How the values were obtained:
[1] = target: SARS-CoV-1 RBD (SARS-CoV); assay: sVNT, cPass kit format with SARS-CoV-1 RBD-HRP; HEK293 supernatant
[2] = target: SARS-CoV-2 RBD (SARS-CoV-2); assay: sVNT, cPass kit with SARS-CoV-2 RBD-HRP; HEK293 supernatant
[3] = target: SARS-CoV-2 RBD (SARS-CoV-2); assay: ELISA, 100 ng coated RBD, neat supernatant, anti-human IgG-HRP
[4] = target: SARS-CoV-1 RBD (SARS-CoV); assay: as above

B1: Antibody 8 (SS6V8-D3) (antibody, V domains shown)
VH: EVQLVESGGDLVQPGGSLRLSCSASGFTFSTYAMHWVRQAPGKGLDYVASIASDGGITTYADSVKGRFTISRDNSKNALYLQMSSLRVEDTAVYYCVKDSLTSVTTIFDCWGQGTLVTVSS
VL: DIQMTQSPSSLSASVGDSVTITCRASQNINSYLHWYQQKPGKAPKLLIYTASSLQSGVPSRFSASGSGTHFTLTISSLQPEDFATYYCQQSYTDPYTFGQGSKVEIK
[1]
  sVNT SARS-CoV-1 (% I): 36.1%
[2]
  sVNT SARS-CoV-2 (% I): 33.1%
[3]
  Binding SARS-CoV-2: 1.94
[4]
  Binding SARS-CoV-1: 1.42

B2: Antibody 15 (SS6V15-F6) (antibody, V domains shown)
VH: EVQLVESGGGVVQPGRSLRLSCAASGFTFSSYAIHWVRQAPGKALEWVALISYDGRTKYYADSVKGRFTISRDNSKNTLYLQMNSLRAEDTAVYYCARLDIIITPPANDYWGQGTLVTVSS
VL: EIVLTQSPGTLSLSPGDRATVSCRASQIVSSNYLAWYQQKPGQVPRLLIYDASSRATGIPDRFSGSGSGTDFTLTISRLEPEDFAVYYCHQYGDSRRTFGQGTKVDIK
[1]
  sVNT SARS-CoV-1 (% I): 17.5%
[2]
  sVNT SARS-CoV-2 (% I): 15.7%
[3]
  Binding SARS-CoV-2: 0.674
[4]
  Binding SARS-CoV-1: 0.831

B3: Antibody 1 (SS6V1-B5) (antibody, V domains shown)
VH: EVQLVESGGGLVQPGGSLRLSCAASGFILRNYEMQWVRQAPGKGLEWVSVIGNTGGTFYAGSVKGRFTISRENAKNSLYLQMNSLRAEDTALYYCARVTYTSSPLPFWFLDLWGRGTLVTVSS
VL: DIQMTQSPSSLSASVGDRVTITCRASQSIGNYLNWYQQKSGKAPKILIYAASSLQSGVPSRFSGSGSGTDFTLTISSLQPEDFATYYCQQTYRTPPEDSFGQGTKVEIK
[1]
  sVNT SARS-CoV-1 (% I): 52.1%
[2]
  sVNT SARS-CoV-2 (% I): 46.3%
[3]
  Binding SARS-CoV-2: 1.73
[4]
  Binding SARS-CoV-1: 1.35

B4: Antibody 18 (SS6V18-E3) (antibody, V domains shown)
VH: EVQLVESGGGLVQPGGSLRLSCAASGFTFSSYAMHWVRQVPGKGLEYVSSITSNGGGTFYADSVKGRFTISRDNSKNTVYLQMGSLSTEDMALYYCAREGIQGWVTYFDYWGRGILVTVSS
VL: DIQMTQSPSSLSASIGDRVTITCRASQSISTNLNWYQQKPGKAPKLLIYAASSLPSGVPSRFSGSGSGTDFTLTISSLQPEDFANYLCQQTYTTPQYSFGQGTKVEIK
[1]
  sVNT SARS-CoV-1 (% I): 43.7%
[2]
  sVNT SARS-CoV-2 (% I): 15.5%
[3]
  Binding SARS-CoV-2: 1.11
[4]
  Binding SARS-CoV-1: 1.33

B5: Antibody 9 (SS6V9-D11) (antibody, V domains shown)
VH: QVQLQESGPGLVKPSGTLSLTCAVSGGSISSNIWWSWVRQPPGKGLEWIGDIYHSGSTNYNPSLEGRVTISIDKSKNQFSLRLTSLTAADTAVYYCARAISQQYFDSSVLGYWGQGILVTVSS
VL: EIVMTQSPATLSVSPGERVTLSCRASQSVVTNLAWYQQKPGQAPRLLIYGASTRATGIPARFSGSGSGTEFTLTISSLQSEDFAIYHCQQYNNWPGYTFGQGTKVDIK
[1]
  sVNT SARS-CoV-1 (% I): 45.2%
[2]
  sVNT SARS-CoV-2 (% I): 39.2%
[3]
  Binding SARS-CoV-2: 1.81
[4]
  Binding SARS-CoV-1: 1.29

B6: Antibody 19 (SS6V19-F4) (antibody, V domains shown)
VH: EVQLVQSGSELKKPGASVKVSCKVSGYTFTDYNMNWVRQAPGQGLEWMGWINTNTGIPTYAQGFTGRFVFSLDTSVSTAYLQISSLKAEDTAIYYCARDGGWQLPYWYFDLWGRGTLVTVSS
VL: EIVMTQSPATLSVSPGERVTLSCRASYSFSSSLAWYQQKPGQAPRLLIYGTSTRATGVPVRFSGSGSGTEFTLTISSLQSEDLAVYYCQQYYSWPLTFGQGTKVDIK
[1]
  sVNT SARS-CoV-1 (% I): 61.2%
[2]
  sVNT SARS-CoV-2 (% I): 38.8%
[3]
  Binding SARS-CoV-2: 0.641
[4]
  Binding SARS-CoV-1: 1.15

B7: Antibody 14 (SS6V14-F2) (antibody, V domains shown)
VH: QVQLQESGPGLVKPSETLSLTCTVSGGPISSYYWTWIRQPPGKGLEWIGYIYYSGSTNYSPSLKSRVTMSLETSKNQFSLKLTSVTAADTAVYYCARDPLAEGAASSGFDNWGQGTLVTVSS
VL: DIQMTQSPSSLSASVGDRVTITCRASQSISSYLNWYQQKPGKAPKLLIYAASALQSGVPSRFSGSGSGTHFSLTINGLQPEDFATYSCQQSYTTPRTFGPGTKVEIK
[1]
  sVNT SARS-CoV-1 (% I): 18.1%
[2]
  sVNT SARS-CoV-2 (% I): 33.4%
[3]
  Binding SARS-CoV-2: 1.54
[4]
  Binding SARS-CoV-1: 1.06

B8: Antibody 2 (SS6V2-G1) (antibody, V domains shown)
VH: EVQLVESGGGLVQPGGSLRLSCAASGFTVSSNYMSWVRQAPGKGLEWVSVIYSGGSTFYADSVKGRFTISRDNSKNTLYLQMNSLRAEDTAVYYCARELRHYFDYWGQGTLVTVSS
VL: DIQLTQSPSFLSASVGDRVTITCRASQGISSYLAWYQQKPGKAPKLLIYAASTLQSGVPSRFSGSGSGTEFTLTISSLQPEDFATYYCQQLNSYPPYSFGQGTKVEIK
[1]
  sVNT SARS-CoV-1 (% I): 1.35%
[2]
  sVNT SARS-CoV-2 (% I): 20.2%
[3]
  Binding SARS-CoV-2: 0.947
[4]
  Binding SARS-CoV-1: 0.008

B9: Antibody 5 (SS6V5-C3) (antibody, V domains shown)
VH: EVQLVQSGAEVRKPGESLKISCKTSGYTFTHYWIGWVRQLPGKGLEWMGIIYPDDSDTKYSPSFQGQITISADKSISTAYLQWNSLKASDTAMYFCATADIVVGSNFFDHWGQGTLVTVSS
VL: DIQMTQSPSTLSASVGDRVTITCRASQSISTWLAWYQQKPGKPPKVLIYKASILESGVSSRFSGSGSGTEFTLTISSLQPDDFATYYCQHYNSYIKTFGQGTKVEIK
[1]
  sVNT SARS-CoV-1 (% I): 11.7%
[2]
  sVNT SARS-CoV-2 (% I): 32.3%
[3]
  Binding SARS-CoV-2: 1.68
[4]
  Binding SARS-CoV-1: 1.16

B10: Antibody 6 (SS6V6-C4) (antibody, V domains shown)
VH: EVQLVESGGGLVQPGGSLRLSCSASGFTFNTYAMHWVRQAPGKGPEYVSGISSNGGITDYADSVKGRFTISRDNSKNTLYLQMSSLRPEDTAVYYCVKDSLATVVTLLSYWGQGTLVTVSS
VL: DIQMTQSPSSLSASVGDRVTITCRASQTISSYLNWFQQKPGKAPKLLIYAASSLQSGVPSRFSGSGSGTDFTLTISSLQPEDFAIYYCQQSYSTPGTFGQGTKVEIK
[1]
  sVNT SARS-CoV-1 (% I): 30.5%
[2]
  sVNT SARS-CoV-2 (% I): 31.7%
[3]
  Binding SARS-CoV-2: 1.92
[4]
  Binding SARS-CoV-1: 1.29

B11: Antibody 12 (SS6V12-E11) (antibody, V domains shown)
VH: EVQLVESGGGLVKPGGSLRLSCAASGFTFSTYNMNWVRQAPGKGLEWVSSISSSSSFMFYADSVKGRFTISRDNANNSLYLQMNSLRAEDTAVYYCARDYYDNSGYYYYGMDVWGQGTTVTVSS
VL: DIQMTQSPSSLSASVGDRVTITCRASQSIRTYLSWYQQKPGKAPELLIYAASNLQSGVPSRFSGSGSGTDFTLTISSLQPEDFATYYCLQTYSTPQITFGQGTRLEIE
[1]
  sVNT SARS-CoV-1 (% I): 50.4%
[2]
  sVNT SARS-CoV-2 (% I): 45%
[3]
  Binding SARS-CoV-2: 1.45
[4]
  Binding SARS-CoV-1: 1.21

B12: Antibody 7 (SS6V7-C5) (antibody, V domains shown)
VH: EVQLVQSGAEVKKPGESLKISCKGSENIFSGYWIGWVRQMPGKGLEWMGIIYPDDSDTRYNPSFQGQVTISADQSISTAYLQWSRLKASDTAMYYCARHLGGGSSWPIDYWGQGTLVTVSS
VL: DIQMTQSPSSLSASVGDRVTITCRANQGISNYLAWFQQKPGKAPKSLIYAASSLQSGVPSKFSGNRSGTDFTLTISSLQPEDFATYYCQQYSSYPFTFGGGTKVEIK
[1]
  sVNT SARS-CoV-1 (% I): 20.8%
[2]
  sVNT SARS-CoV-2 (% I): 14.9%
[3]
  Binding SARS-CoV-2: 1.16
[4]
  Binding SARS-CoV-1: 0.972

B13: Antibody 10 (SS6V10-E1) (antibody, V domains shown)
VH: EVQLVQSGAEVKKPGESLKISCQGSEDSFTGYWIGWVRQLPGKGLEWMGFIYPDDGDTRYSPAFQGLVTFSADKSITTAYLQWSSLKASDTAIYFCARHLGGGSSWPIDSWGQGTQVTVSS
VL: DIQMTQSPSSLSASVGDRVTITCRASQGIRNYLAWFQQKPGKAPKSLIYAASSLQSGVPSKFSGSGYGTDFTLTINSLQPEDFATYYCQQYNNHPFTFGGGTKVEIK
[1]
  sVNT SARS-CoV-1 (% I): 15.4%
[2]
  sVNT SARS-CoV-2 (% I): 22.7%
[3]
  Binding SARS-CoV-2: 1.31
[4]
  Binding SARS-CoV-1: 1.1
